This passage reports percent co-pelleted (with APC-C1 added) results from PMC4834876.

This assay has as its target F-actin (filamentous actin) from rabbit muscle (rabbit), P68135. Description: co-sedimentation. The settings on record: remark: other sources report otherwise.

B1: EB1 full-length (end-binding protein 1), wild type, Q15691 1-268 (natural protein)
chain: MAVNVYSTSVTSDNLSRHDMLAWINESLQLNLTKIEQLCSGAAYCQFMDMLFPGSIALKKVKFQAKLEHEYIQNFKILQAGFKRMGVDKIIPVDKLVKGKFQDNFEFVQWFKKFFDANYDGKDYDPVAARQGQETAVAPSLVAPALNKPKKPLTSSSAAPQRPISTQRTAAAPKAGPGVVRKNPGVGNGDDEAAELMQQVNVLKLTVEDLEKERDFYFGKLRNIELICQENEGENDPVLQRIVDILYATDEGFVIPDEGGPQEEQEEY
B1 registered a percent co-pelleted (with APC-C1 added) of 50%.
